{"source": "patent US20130156786A1", "about": "(Sanofi, published 2013)", "key": {"[1]": {"target": "T1, human α2β1 integrin on human platelets (human, UniProt P17301 30-1181; P05556 21-798)", "T1 sequence (P17301 30-1181 limits assumed, chain 1 of 2)": "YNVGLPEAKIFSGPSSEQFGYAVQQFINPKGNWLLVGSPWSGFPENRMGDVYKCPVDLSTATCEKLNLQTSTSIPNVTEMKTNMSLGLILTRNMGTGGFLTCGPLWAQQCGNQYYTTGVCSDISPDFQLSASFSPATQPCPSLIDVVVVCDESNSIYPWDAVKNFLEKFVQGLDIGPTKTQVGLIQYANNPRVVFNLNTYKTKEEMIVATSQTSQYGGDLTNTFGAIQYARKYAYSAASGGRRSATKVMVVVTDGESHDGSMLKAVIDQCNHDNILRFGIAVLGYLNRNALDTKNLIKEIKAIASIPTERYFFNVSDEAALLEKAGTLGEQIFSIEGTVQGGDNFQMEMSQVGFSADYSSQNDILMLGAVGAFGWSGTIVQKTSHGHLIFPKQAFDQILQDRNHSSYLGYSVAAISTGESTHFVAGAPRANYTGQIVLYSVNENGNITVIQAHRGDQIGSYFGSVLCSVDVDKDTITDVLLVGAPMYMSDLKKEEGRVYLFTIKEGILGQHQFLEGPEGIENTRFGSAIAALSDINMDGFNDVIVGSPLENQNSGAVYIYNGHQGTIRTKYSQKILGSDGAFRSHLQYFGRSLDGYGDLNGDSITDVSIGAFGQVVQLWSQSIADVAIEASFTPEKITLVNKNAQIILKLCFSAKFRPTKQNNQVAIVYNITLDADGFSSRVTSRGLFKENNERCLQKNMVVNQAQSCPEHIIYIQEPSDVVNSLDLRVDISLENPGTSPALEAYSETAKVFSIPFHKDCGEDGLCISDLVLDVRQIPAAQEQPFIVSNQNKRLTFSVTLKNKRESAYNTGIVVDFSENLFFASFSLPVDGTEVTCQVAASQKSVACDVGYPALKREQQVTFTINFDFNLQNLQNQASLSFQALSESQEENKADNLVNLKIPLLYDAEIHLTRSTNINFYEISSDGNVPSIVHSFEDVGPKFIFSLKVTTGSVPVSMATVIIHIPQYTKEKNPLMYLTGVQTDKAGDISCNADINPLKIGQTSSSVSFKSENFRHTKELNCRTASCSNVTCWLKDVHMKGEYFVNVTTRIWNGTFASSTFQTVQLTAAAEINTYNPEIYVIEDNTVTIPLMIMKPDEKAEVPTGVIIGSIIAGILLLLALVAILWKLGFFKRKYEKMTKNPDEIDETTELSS", "T1 sequence (P05556 21-798 limits assumed, chain 2 of 2)": "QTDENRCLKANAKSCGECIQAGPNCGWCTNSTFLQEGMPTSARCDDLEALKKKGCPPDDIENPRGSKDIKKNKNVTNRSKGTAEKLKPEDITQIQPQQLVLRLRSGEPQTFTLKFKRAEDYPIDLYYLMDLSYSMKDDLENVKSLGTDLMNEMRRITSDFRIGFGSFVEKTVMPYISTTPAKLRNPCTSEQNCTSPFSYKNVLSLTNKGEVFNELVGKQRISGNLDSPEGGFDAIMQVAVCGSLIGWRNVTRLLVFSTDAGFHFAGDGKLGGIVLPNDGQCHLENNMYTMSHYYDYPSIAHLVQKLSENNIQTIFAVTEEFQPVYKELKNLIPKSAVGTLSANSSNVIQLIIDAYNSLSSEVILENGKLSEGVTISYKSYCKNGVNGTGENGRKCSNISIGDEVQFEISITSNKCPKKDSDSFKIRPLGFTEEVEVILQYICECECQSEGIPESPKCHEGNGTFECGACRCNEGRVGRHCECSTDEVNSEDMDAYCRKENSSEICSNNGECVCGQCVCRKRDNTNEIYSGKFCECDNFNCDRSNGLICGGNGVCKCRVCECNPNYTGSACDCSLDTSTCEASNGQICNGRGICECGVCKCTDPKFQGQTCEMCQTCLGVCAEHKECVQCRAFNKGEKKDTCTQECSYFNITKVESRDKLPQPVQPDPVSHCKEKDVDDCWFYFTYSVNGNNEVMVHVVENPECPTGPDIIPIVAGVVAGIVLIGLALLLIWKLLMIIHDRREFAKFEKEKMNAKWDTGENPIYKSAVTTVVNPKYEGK", "experiment": "cell-based or functional assay"}, "[2]": {"target": "T1, human α2β1 integrin on human platelets", "experiment": "cell-based or functional assay", "remark": "listed apart in the source"}}}
{"binder": "humanized anti-α2-integrin mAb LC3/HC3 (antibody, IgG4, V domains shown) VH: QVQLHQPGAELVKPGASVKLSCKASGYTFTSYWMNWVKQRPGRGLEWIGRIDPSDSETHYNQKFKDKATLTVDKSSSTAYIQLSSLTSEDSAVYYCAKVGRGYFDYWGQGTTLTVVS VL: NIVLTQSPSSLSVSVGQRATISCRASESVESYGNSFIYWYQQKPGQAPKLLIYLASNLASGVPARFSGSGSRTDFTLTIDPVQAEDAATYYCQQNNEDPYTFGGGTKLEIK", "values": [{"measurement": "Inhibition of binding of washed platelets to collagen, IC50", "setting": "[1]", "result": 0.012, "unit": "µg/mL"}, {"measurement": "Inhibition of binding of platelets to collagen in platelet rich plasma, MW IC50", "setting": "[2]", "result": 0.132, "unit": "µg/mL"}]}
{"binder": "humanized anti-α2-integrin mAb LC1/HC1 (antibody, IgG4, V domains shown) VH: QVQLHQPGAELVKPGAPVKLSCKASGYTFTSYWMNWVKQRPGQGLEWIGRIDPSDSETHYNQKFKDRATLTVDKSSSTAYIQLSSLTSEDSAVYYCAKVGRGYFDYWGQGTTLTVVS VL: NIVLTQSPSSLAVSVGQRATISCRASESVESYGNSFIYWYQQKPGKAPKLLIYLASNLASGVPARFSGSGSRTDFTLTIDPVQADDAATYYCQQNNEDPYTFGGGTKLEIK", "values": [{"measurement": "Inhibition of binding of washed platelets to collagen, IC50", "setting": "[1]", "result": 0.021, "unit": "µg/mL"}, {"measurement": "Inhibition of binding of platelets to collagen in platelet rich plasma, MW IC50", "setting": "[2]", "result": 0.277, "unit": "µg/mL"}]}
{"binder": "humanized anti-α2-integrin mAb LC2/HC2 (antibody, IgG4, V domains shown) VH: QVQLHQPGAELVKPGAPVKLSCKASGYTFTSYWMNWVKQRPGQGLEWIGRIDPSESETHYNQKFKDRATLTVDKSSSTAYIQLSSLTSEDSAVYYCAKVGRGYFDYWGQGTTLTVVS VL: NIVLTQSPSSLAVSVGQRATISCRASESVESYGQSFIYWYQQKPGKAPKLLIYLASNLASGVPARFSGSGSRTDFTLTIDPVQADDAATYYCQQNNEDPYTFGGGTKLEIK", "values": [{"measurement": "Inhibition of binding of washed platelets to collagen, IC50", "setting": "[1]", "result": 0.092, "unit": "µg/mL"}, {"measurement": "Inhibition of binding of platelets to collagen in platelet rich plasma, MW IC50", "setting": "[2]", "result": 3.96, "unit": "µg/mL"}]}
{"binder": "humanized anti-α2-integrin mAb LC3/HC4 (antibody, IgG4, V domains shown) VH: QVQLHQPGAELVKPGASVKLSCKASGYTFTSYWMNWVKQRPGRGLEWIGRIDPSDSETHYNQKFKDKATLTVDKSSSTAYIQLSSLTSEDSAKYYCAKVGRGYFDYWGQGTTLTVVS VL: NIVLTQSPSSLSVSVGQRATISCRASESVESYGNSFIYWYQQKPGQAPKLLIYLASNLASGVPARFSGSGSRTDFTLTIDPVQAEDAATYYCQQNNEDPYTFGGGTKLEIK", "values": [{"measurement": "Inhibition of binding of washed platelets to collagen, IC50", "setting": "[1]", "result": 0.016, "unit": "µg/mL"}, {"measurement": "Inhibition of binding of platelets to collagen in platelet rich plasma, MW IC50", "setting": "[2]", "result": 0.193, "unit": "µg/mL"}]}
{"binder": "humanized anti-α2-integrin mAb LC4/HC5 (antibody, IgG4, V domains shown) VH: QVQLHQPGAELVKPGASVKLSCKASGYTFTSYWMNWVKQRPGRGLEWIGRIDPSESETHYNQKFKDKATLTVDKSSSTAYIQLSSLTSEDSAVYYCAKVGRGYFDYWGQGTTLTVVS VL: NIVLTQSPSSLSVSVGQRATISCRASESVESYGQSFIYWYQQKPGQAPKLLIYLASNLASGVPARFSGSGSRTDFTLTIDPVQAEDAATYYCQQNNEDPYTFGGGTKLEIK", "values": [{"measurement": "Inhibition of binding of washed platelets to collagen, IC50", "setting": "[1]", "result": 0.057, "unit": "µg/mL"}, {"measurement": "Inhibition of binding of platelets to collagen in platelet rich plasma, MW IC50", "setting": "[2]", "result": 3.25, "unit": "µg/mL"}]}
{"binder": "humanized anti-α2-integrin mAb LC4/HC6 (antibody, IgG4, V domains shown) VH: QVQLHQPGAELVKPGASVKLSCKASGYTFTSYWMNWVKQRPGRGLEWIGRIDPSESETHYNQKFKDKATLTVDKSSSTAYIQLSSLTSEDSAKYYCAKVGRGYFDYWGQGTTLTVVS VL: NIVLTQSPSSLSVSVGQRATISCRASESVESYGQSFIYWYQQKPGQAPKLLIYLASNLASGVPARFSGSGSRTDFTLTIDPVQAEDAATYYCQQNNEDPYTFGGGTKLEIK", "values": [{"measurement": "Inhibition of binding of washed platelets to collagen, IC50", "setting": "[1]", "result": 0.068, "unit": "µg/mL"}, {"measurement": "Inhibition of binding of platelets to collagen in platelet rich plasma, MW IC50", "setting": "[2]", "result": 4.11, "unit": "µg/mL"}]}
{"binder": "humanized anti-α2-integrin mAb LC5/HC7 (antibody, IgG4, V domains shown) VH: QVQLVQSGAEVKKPGASVKVSCKASGYTFTSYWMNWVRQAPGQGLEWIGRIDPSDSETHYAQKFQGRATLTVDKSTSTAYMELSSLRSEDTAVYYCAKVGRGYFDYWGQGTLVTVSS VL: NIVLTQSPASLAVSPGQRATITCRASESVESYGNSFIYWYQQKPGQPPKLLIYLASNLASGVPARFSGSGSRTDFTLTINPVEADDTANYYCQQNNEDPYTFGGGTKLEIK", "values": [{"measurement": "Inhibition of binding of washed platelets to collagen, IC50", "setting": "[1]", "result": 0.031, "unit": "µg/mL"}, {"measurement": "Inhibition of binding of platelets to collagen in platelet rich plasma, MW IC50", "setting": "[2]", "result": 0.224, "unit": "µg/mL"}]}
